Reference: the DeepSol protein solubility set

Experiment: soluble on expression in E. coli; label from the status in PepcDB or PDB records

Sequence	soluble on expression in E. coli
ESVLTQPPSVSGAPGQRVTISCTGSSSNIGAGYDVHWYQQLPGTAPKLLISGNSNRPSGVPDRFSGSKSGTSASLAITGLQAEDEADYYCQSYDSSLSGSVFGGGTKLTVLGQPKAAPSVTLFPPSSEELQANKATLVCLISDFYPGAVTVAWKADSSPVKAGVETTTPSKQSNNKYAASSYLSLTPEQWKSHRSYSCQVTHEGSTVEKTVAPTECS	soluble
MVSLCKLFGVTKQAFYKYVDHSTDSSARERFVLEFVKRVRSKDPGIGGMKLWLMYRNEFGTSQAFVGRDCFCAILSKYKLTIRKRFRAPRTTDSSHHLPQYPDLTRTLLLEHPDQLWVSDITYITIWLPDGSYVFCYLSLVTDAYTKEIIGYCVGDTLGSCYTVEALEMAVRRIAAKEIKGLIHHSDRGVQYASADYIAILRHNGILPSMTEDGNPKDNAIAERVNGIIKNELLQGMRFSSIQEVRKAVATAVHFYNNERPHMSLDMLTPVQAGEMQGPIRKRWISYREKYLNVALA	not soluble
IGEVSYGAKFVLSDDQQKILRYPNDSYDVGSYYKGEHLNDIWGLTTIGIAKSQEEMDAHLAKVDQSSVGTNWGVGDIMYADLDGDGKISNGTNKLGDTGDYRIIGNSTPRFKYGITLDAAWKGFDFSIFMQGIGKRDLWLDGCYFWGANGQGNEWQSTGFAEHWDFFRPEGDPLGANLNSYYPRVNFSGDRNTKVQTRYLQNGAYLRLKNVQLGYTLPRVWTEKAGISSVRVYVSGDNLATITSLSKIFDPEATGSLAGTGSGKLYPLQRVISVGVNVNF	not soluble
MGSDKIHHHHHHMTLKDIAEMAGVSTMTVSNVINGKTSRVSQKTRDKINSIIEEYNYVPNMNARSLSNNSSHIIGVVTFLEEKEYASGYNYFENPYVSTMIGTIETELHKNGYFTMLQSVSRSSDILSLVKNWNVDGMILVFPTSAQNLEKLMDAANCPIATFDSNYSHPNLINVISDDEKGLYLSTKYMINHGHTEIAFVADYEGNIVLTKRFNGYKKALEDSHIPFRPEYIFSYPPSYEGGIEAGRAIAGSKSPITAVVTTADICAIGIMEGARLGGYRVPIDLSVIGYDNLNLCQYTVPKLTSVSQNVPKKARLATELLLKKIHDNESDSNLGEIIDVEIVDRQSVISLY	not soluble
MISRTFLLLFFVFSISKCEVQLGCTSPPLPDANGLCPDGYTLITAGGCCPDSDVYIISATTTTTTTTQAPTTTASSGSCQDKVNPKTGVSDCPGMKAYCNNPAYVSVMKDQCPKTCGYCSSSATTAGTCQDKINPSTGRSDCPGMAAYCNNPVYHDVMKDQCPKTCGYC	not soluble
MVDMKTTHTSLPFAGHTLHFVEFDPANFCEQDLLWLPHYAQLQHAGRKRKTEHLAGRIAAVYALREYGYKCVPAIGELRQPVWPAEVYGSISHCGATALAVVSRQPIGVDIEEIFSAQTATELTDNIITPAEHERLADCGLAFSLALTLAFSAKESAFKASEIQTDAGFLDYQIISWNKQQVIIHRENEMFAVHWQIKEKIVITLCQHD	not soluble
MSLQTWIWYPGDYEIWLGNRMNNRRTERGAFFPPFWKTDSHYVVVEFSKKLDLAEPEEIFIAAEGKYNVKLDGKLQFGMPSTLKLPAGKHSLNIKVWNQSTPPTIYVKGKTVNTDKTWKVTYEDKEWIDESGKASDTSATVYMDAGCWNFDGATQLPSKFSLARKPMKAVSSTPRKEGVLYDFGKETFGYITLKEVKGKGTIHIYYGESPEEALDTEYCETLDKLLAEPGQITDLAIRNTRKLYDEYTLDNSKAFRYVYVTCDPGVTIQDVSMQYEYLPEEYRGSFKCNDEELNRIWEVGAYTMHLTTREFFIDGIKRDRWVWSGDAIQSYLMNYYLFFDNETVKRTIWLLRGKDPVTSHSNTIMDYTFYWFLSIYDYYMYSGDKDFVTQLYPRMQSMMDYVLGRTNANGMVEGMTGDWVFVDWADGYLDKKGELSFEQVLFCKSLETMALCAGLAGNTADKTKYEKLASALRSKLEPAFWNEQKQAMVHNRVQGKQSESVTRYANMFSVFFNYLNADKQQTIKHSVLQNDSILKITTPYMRFYELEALCALGEQESVMKEMKAYWGGMLKEGATSFWEKYNPEETGTRHLAMYGRPYGKSLCHAWGASPIYLLGKYYLGVKPTKPGYEEYSVTPCLGGLKWMEGTVPTPYGNIHIYMDKKEIRIKSDGGKGVLNIPTRKGMKAMTIEPGEEQVFKYEGHHHHHH	soluble
MKKATMLTYLEEQLEKHLGDYEVGLDWDRKNHTIEVIVRLYAENNEQVAIDDVDGTLSEEEFIEFEDGLLFYNPQKSVVDDEEYLVTIPYEGKKGLRKAVLDGFIHYLKVVLDEGQSDLLDFLSDETAEVFELHWEPADFEAMIKKVAETEKEQWIAYPSY	not soluble
MQSPPHDPASALAIRNHYRQSQSRAARLRLLVDTGQELIQLPPEAMRKCVLQRACAFVAMDHGLLLEWGADNGVQTTARHGSKERLSTLETTADPLAIGPQWLERPGTHLPCVLLLPLRGADEGSFGTLVLANSVAISAPDGEDIESLQLLATLLAAHLENNRLLEALVARDRT	not soluble
MYRLQIEKIRGFRDFYPEDMDVEKFIFKTAEEAAEAFGFRRIDFPSLEYLDLYRIKSGEELLQQTYSFVDKGGREVTLIPEATPSTVRMVTSRKDLQRPLRWYSFPKVWRYEEPQAGRYREHYQFNADIFGSDSPEADAEVIALASSILDRLGLQDIYEIRINSRKIMEEIIGGMTSSDPFSVFSIIDRYHKISREEFVDQLRSAGIGEDGVSMIADLCSGTRGIDEMARITGKSSEEIARMAAVEDLLASYGVKNVRYDFSIVRGLSYYTGIVFEAYDRSGQFRAILGGGRYDNLASLMSGESVPAVGFGMGDAVISLLLKRENVQIPREKKSVYICRVGKINSSIMNEYSRKLRERGMNVTVEIMERGLSAQLKYASAIGADFAVIFGERDLERGVVTIRNMYTGSQENVGLDSVVEHLISQATLEHHHHHH	soluble
MHHHHHHSSGVDLGTENLYFQSMARLPKLAVFDLDYTLWPFWVDTHVDPPFHKSSDGTVRDRRGQDVRLYPEVPEVLKRLQSLGVPGAAASRTSEIEGANQLLELFDLFRYFVHREIYPGSKITHFERLQQKTGIPFSQMIFFDDERRNIVDVSKLGVTCIHIQNGMNLQTLSQGLETFAKAQTGPL	soluble
EECQVRVGDLTVAKTRGQLTDAAPIGPVTVQALGCNARQVALKADTDNFEQGKFFLISDNNRDKLYVNIRPMDNSAWTTDNGVFYKNDVGSWGGTIGIYVDGQQTNTPPGNYTLTLTGGYWAKDNKQGFTPSGTTGTTKLTVT	soluble
MKTAQEFRAGQVANINGAPWVIQKAEFNKSGRNAAVVKMKLKNLLTGAGTETVFKADDKLEPIILDRKEVTYSYFADPLYVFMDSEFNQYEIEKDDLEGVLTFIEDGMTDICEAVFYNDKVISVELPTTIVRQIAYTEPAVRGDTSGKVMKTARLNNGAELQVSAFCEIGDSIEIDTRTGEYKSRVKA	not soluble
AGIKVFGHPASIATRRVLIALHEKNLDFELVHVELKDGEHKKEPFLSRNPFGQVPAFEDGDLKLFESRAITQYIAHRYENQGTNLLQTDSKNISQYAIMAIGMQVEDHQFDPVASKLAFEQIFKSIYGLTTDEAVVAEEEAKLAKVLDVYEARLKEFKYLAGETFTLTDLHHIPAIQYLLGTPTKKLFTERPRVNEWVAEITKRPASEKVQ	soluble
MGSDKIHHHHHHMARKPIDRPVHIPPLQALRALEAAARHRSFSRAAEELALTHSAISHHMRALEDKLGTKLFQRTGSQMAPTSAGARLAEQIRAALDDIESAVREASSSTTTPVVRLQVSVMADLANAWLIRRLPSLHAQVPSLDLHLRLHAEITPPDPYSVDVGIWHQRIDLPGFECHNLIEDHVIAVASPALLARYPGFTPADVPRMPMLRFALRPWRDWLEAAGLPDAEPERGPIFQDAGLMLQSAVAGLGVATARAQLAHDYLESGQLVQVGSTRIPSSLHYWVTWREGNPREKAIQQFHAWLQEQVRRETPTAEPTTTDDAMK	not soluble
